Drawing on US8097425, this text covers Maximum Reactivity for 2 molecules.

The target in one test is hybridoma 2.03. Nature of the test: competition ELISA; signal of 2.03 on plate-bound Pep2-0 (competitor) with this free peptide; low = inhibited. (In general: In an ELISA, binding on a coated surface is turned into a signal by an enzyme label.)
The target in another test is hybridoma 2.11. Nature of the test: competition ELISA; signal of 2.11 on plate-bound Pep2-0 (competitor) with this free peptide; low = inhibited.

B1: Pep1-1 (peptide)
peptide: Ac-HSLFHPEDTG-biotin
Consider B1, for which the figures for the Maximum Reactivity in the test with hybridoma 2.03 and with hybridoma 2.11 were 0.382 and 1.48, respectively.

B2: Pep1-2 (peptide)
peptide: Ac-SLFHPEDTGQ-biotin
As to B2, the Maximum Reactivity in the test with hybridoma 2.03 came out at 0.329; with hybridoma 2.11, 1.49.
